Results reported in patent US20100196267A1.
One block for each binder: values may come before it.

Legend:
HLA-DR (human) [1] = test: indirect FACS, FITC-GAH Fc 2nd Ab, Raji cells (none 6.8); control antibody
HLA-DR (human) [2] = test: indirect flow cytometry, FITC-GAH Fc 2nd Ab, SU-DHL-6 cells (none 4.6); negative control antibody
HLA-DR (human) [3] = test: indirect FACS, FITC-GAH Fc 2nd Ab, Daudi cells (none 3.1); control antibody
HLA-DR (human) [4] = test: indirect FACS, FITC-GAH Fc 2nd Ab, WSU-FSCCL cells (none 2.6); control antibody
HLA-DR (human) [5] = test: indirect FACS, FITC-GAH Fc 2nd Ab, Ramos cells (none 3.1); control antibody
HLA-DR (human) [6] = test: indirect flow cytometry, FITC-GAH Fc 2nd Ab, RL cells (none 2.4); negative control antibody
HLA-DR (human) [7] = test: indirect flow cytometry on Namalwa cells, FITC-GAH 2nd Ab (none 2.52); control antibody
HLA-DR (human) [8] = test: indirect FACS, FITC-GAH Fc 2nd Ab, SU-DHL-6 cells (none 4.6); control antibody
HLA-DR (human) [9] = test: indirect FACS, FITC-GAH Fc 2nd Ab, Namalwa cells (none 2.5); control antibody
HLA-DR (human) [10] = test: indirect flow cytometry, FITC-GAH Fc 2nd Ab, Raji cells (none 6.9); negative control antibody
HLA-DR (human) [11] = test: indirect flow cytometry, FITC-GAH Fc 2nd Ab, Ramos cells (none 3.1); negative control antibody
HLA-DR (human) [12] = test: indirect flow cytometry, FITC-GAH Fc 2nd Ab, Namalwa cells (none 2.6); negative control antibody
[13] = biological target: antigen on dog lymphoma cells recognised by L243 and hL243 (dog); test: flow cytometry on dog lymphoma aspirate, humanized MAbs (none 3.24); control antibody
[14] = biological target: antigen on dog lymphoma cells recognised by L243 and hL243 (dog); test: flow cytometry on dog lymphoma aspirate, humanized MAbs (none 4.48); control antibody
HLA-DR (human) [15] = test: indirect flow cytometry, FITC-GAH Fc 2nd Ab, WSU-FSCCL cells (none 2.7); negative control antibody
HLA-DR (human) [16] = test: indirect flow cytometry, FITC-GAH Fc 2nd Ab, Daudi cells (none 3.2); negative control antibody
[17] = biological target: human serum complement (human); test: cell-based or functional assay
HLA-DR (human) [18] = test: indirect flow cytometry on Namalwa cells, FITC-GAM 2nd Ab (none 2.91); control antibody

Geometric Mean Fluorescence (HLA-DR (human) [1]): 6.96 | Geometric Mean Fluorescence (HLA-DR (human) [2]): 4.9 | Geometric Mean Fluorescence (HLA-DR (human) [3]): 3.16 | Geometric Mean Fluorescence (HLA-DR (human) [4]): 2.66 | Geometric Mean Fluorescence (HLA-DR (human) [5]): 3.13 | Geometric Mean Fluorescence (HLA-DR (human) [6]): 2.8 | GEO MEAN Fluorescence (HLA-DR (human) [7]): 2.49 | Geometric Mean Fluorescence (HLA-DR (human) [8]): 4.94 | Geometric Mean Fluorescence (HLA-DR (human) [9]): 2.36 | Geometric Mean Fluorescence (HLA-DR (human) [10]): 7 | Geometric Mean Fluorescence (HLA-DR (human) [11]): 3.1 | Geometric Mean Fluorescence (HLA-DR (human) [12]): 2.4 | Mean FL [13]: 3.24 | % [14]: 4.63% | Geometric Mean Fluorescence (HLA-DR (human) [15]): 2.7 | Geometric Mean Fluorescence (HLA-DR (human) [16]): 3.2
B1: hMN-14 (antibody, INN chains, looked up, V domains shown)
VH: EVQLVESGGGVVQPGRSLRLSCSASGFDFTTYWMSWVRQAPGKGLEWIGEIHPDSSTINYAPSLKDRFTISRDNAKNTLFLQMDSLRPEDTGVYFCASLYFGFPWFAYWGQGTPVTVSS
VL: DIQLTQSPSSLSASVGDRVTITCKASQDVGTSVAWYQQKPGKAPKLLIYWTSTRHTGVPSRFSGSGSGTDFTFTISSLQPEDIATYYCQQYSLYRSFGQGTKVEIKR

B2: hL243γ1 (antibody, human IgG1, V domains shown)
VH: QVQLQQSGSELKKPGASVKVSCKASGFTFTNYGMNWVKQAPGQGLKWMGWINTYTREPTYADDFKGRFAFSLDTSVSTAYLQISSLKADDTAVYFCARDITAVVPTGFDYWGQGSLVTVSS
VL: DIQLTQSPSSLSASVGDRVTITCRASENIYSNLAWYRQKPGKAPKLLVFAASNLADGVPSRFSGSGSGTDYTFTISSLQPEDIATYYCQHFWTTPWAFGGGTKLQIKR
complement-mediated cytotoxicity (CDC) on Daudi cells, resazurin viability, EC50 [17]: 2.6 nM

GEO MEAN Fluorescence (HLA-DR (human) [18]): 3.32
B3: MN14 (murine) (antibody, from a related filing, V domains shown)
VH: EVKLLESGGGLVQSGGSLKLSCAASGFDFTTYWMSWVRQAPGKGLEWIGEIHPDSSTINYAPSLKDKFIVSRDNAKNTLYLQMSKVRSEDTALYYCASLYFGFPWFAYWGQGTPVTVSA
VL: EIQLTQSHKMMSTSVGDRVSITCKASQDVGTSVAWYQQRPGQSPKLLIYWTSTRHTGVPDRFTGSVSGTDFTLTITNVQSEDLADYFCQQYSLYRSFGGGTKLEIK
